Paper PMC6059731 (Science Advances, 2018)
Ends that are not written are not given here.

Target: the molecule itself
Test: SEC-SAXS

B1: Human β-defensin 2 (HBD-2) (natural protein, UniProt O15263 24-64, looked up)
chain: GIGDPVTCLKSGAICHPVFCPRRYKQIGTCGLPGTKCCKKP
modifications: ends and bridges not checked; cysteine pairing not given here
- monomer/dimer ratio (dimer part of 70:30): 30
